Assay results from US12710427B2, “Anti-human neurotensin receptor 1 antibody and use thereof” (National Health Research Institutes, priority 2020, dated 2026).
Numbering of substitutions follows the chain as printed. Names may count otherwise.

How the values were obtained:
[1] = biological target: T1, NTSR1 on A549 cells (Homo sapiens, UniProt P30989); experiment: Flow cytometry (FACS) binding of anti-NTSR1 antibodies on A549 cells; details: for FACS binding (%, 1 μg/ml) / FACS binding (%, 10 μg/ml): A549 cells; for FACS binding (%, 1 μg/ml): antibody 1 μg/ml; for FACS binding (%, 10 μg/ml): antibody 10 μg/ml; for EC50: relative mean fluorescence intensity (MFI) on A549 cells; for binding affinity to cell surface NTSR1 compared with h7C3-1: FACS, h7C3-1 variants
T1 construct: endogenous in cells; host or cells: A549 (NSCLC)
T1 sequence (P30989 whole entry): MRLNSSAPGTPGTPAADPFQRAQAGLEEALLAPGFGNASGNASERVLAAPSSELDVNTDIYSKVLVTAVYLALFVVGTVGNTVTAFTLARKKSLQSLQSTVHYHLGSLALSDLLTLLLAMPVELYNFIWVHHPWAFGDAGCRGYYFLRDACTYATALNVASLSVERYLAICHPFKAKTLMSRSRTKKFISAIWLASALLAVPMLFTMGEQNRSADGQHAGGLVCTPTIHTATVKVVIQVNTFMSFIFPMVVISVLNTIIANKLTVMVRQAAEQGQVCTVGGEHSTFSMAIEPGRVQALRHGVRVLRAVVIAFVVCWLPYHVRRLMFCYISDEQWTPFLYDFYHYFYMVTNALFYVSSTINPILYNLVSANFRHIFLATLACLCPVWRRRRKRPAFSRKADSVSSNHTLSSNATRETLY
Description: A total of 1×10^6 cells were reacted with an anti-NTSR1 antibody in 100 μL of FACS buffer (PBS containing 0.5% BSA) for 60 minutes at 4° C. and washed two times to remove excess antibody. Secondary FITC (BD Pharmingen™) conjugated mouse anti-human IgG antibodies were incubated for an additional 60 minutes on ice. Cells were washed again and followed by an additional incubation with 1 ml PBS containing 0.5 mg/mL propidium iodide at 4° C. for 10 minutes. Data were collected on 10,000 living cells by FACS (Bio-Red S3e cell sorter). Fluorescence intensity from channel FL-1 was calculated with Flow Jo flow […] cytometry analysis software.

[2] = system: cyclic ECL2 peptide of NTSR1; experiment: NTSR1-binding affinity ELISA (alanine scanning variants); design: species or system human; details: for effect on h7C3 affinity (in words): compared with parental h7C3
Chain of cyclic ECL2 peptide of NTSR1 (P30989 206-234 limits assumed): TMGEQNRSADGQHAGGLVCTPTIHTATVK
Description: The NTSR1-binding capacity of different antibodies were measured by ELISA. Briefly, NeutrAvidin 96-well plates (Pierce Cat:15128) were coated with cyL2-Biotin peptides at a final concentration of 5 μg/ml at […]. On the following day, the coating solution was removed, and the plates were blocked with 5% (v/v) non-fat dry milk in phosphate buffer saline (PBS) for 1 hour. After washing with PBST, gradient concentrations of anti-NTSR1 antibodies were added in triplicate. After 1 hour of incubation, the plate was washed three times with PBST, followed by the addition of horseradish peroxidase (HRP)-conjugated goat anti-human IgG Fc antibody (100 μL) into each well for an additional hour at RT. Finally, 100 μL of tetramethylbenzidine (TMB) substrate was added into each well to produce color for visualization. After 2 minutes of incubation, 100 μL of 2M H2SO4 was used to stop the reaction. The absorbance of each well was read at 450 nm with a plate reader. Flow cytometry

[3] = system: A549; experiment: In vitro cell cytotoxicity assay (CellTiter-Glo); type: cell-based
Description: (§1) The number of living cells were determined using the CellTiter-Glo® Luminescent Cell Viability Assay (Promega G7571). Cells were plated in 96-well opaque Costar plates (Cat number 136101). In brief, 500-2500 cells in 90 μL media were added to each well in quadruplicate and allowed to adhere for 16 hours. Anti-NTSR1 (dose range: 0-500 nM), anti-NTSR1-MMAE (dose range: 0-500 nM) or Paclitaxel (dose range: 0-100 nM) were added in […] 72-120 hours, medium was removed, and 200 μL of CellTiter-Glo® viability reagent contain culture medium (1:1) was added to each well and placed on an orbital shaker in the dark for 2 minutes. The plate was allowed to sit at RT for 10 minutes before being read on a GloMax® Explorer Multimode Microplate Reader (GM3500).

[4] = system: PC-3; experiment: In vitro cell cytotoxicity assay (CellTiter-Glo); type: cell-based
Description: as §1

[5] = alanine scanning of CDR L3 of h7C3-1

B1: 7C3: anti-human NTSR1 antibody with VH SEQ ID NO: 1 and VL SEQ ID NO: 2, full-length IgG with human IgG1 constant domains (antibody, V domains shown)
VH: QVQLQQPGSVLVRPGASVKLSCKASGYTFTSSWIHWAKQRPGQGLEWIGQIRPNSGNTYYNEKFKVKATLTVDTSSSTAYVDLSSLTSEDSAVYYCARYYYGFDYWGQGTLVTVSS
VL: DVLMTQTPLSLPVSLGDQASISCRSSQSIVHSNGNTYLEWYLQKPGQSPKLLIYKVSNRFSGVPDRFSGSGSGTDFTLKISRVEAEDLGVYYCFQGSHLPWTFGGGTKLEIKR
modifications: human IgG1 constant domains; VH SEQUENCE; VL SEQUENCE
binding to A549 cells ([1]; 10 μg/ml, flow cytometry): strong binding
FACS binding (%, 1 μg/ml) [1]: 16.8%
FACS binding (%, 10 μg/ml) [1]: 83.2%
EC50 [1]: 11.3 ± 2.8 µg/mL

B2: h7C3-1: 7C3 variant bearing Y100H mutation in CDR H3 (antibody, V domains shown)
VH: B1 VH with Y100H
VL: B1 VL
FACS binding (%, 1 μg/ml) [1]: 41%
FACS binding (%, 10 μg/ml) [1]: 93.1%
EC50 [1]: 7.6 ± 1.7 µg/mL
effect on h7C3 affinity (in words) [2]: higher affinity

B3: P100A: h7C3-1 variant, P100A in CDR L3 (antibody, V domains shown)
VH: B1 VH with Y100H
VL: B1 VL with P100A
binding affinity to cell surface NTSR1 compared with h7C3-1 [1]: significantly diminished
effect on h7C3-1 affinity for peptide (in words) [2, 5]: no effect

B4: G96A: h7C3-1 variant, G96A in CDR L3 (antibody, V domains shown)
VH: B1 VH with Y100H
VL: B1 VL with G96A
binding affinity to cell surface NTSR1 compared with h7C3-1 [1]: significantly diminished
effect on h7C3-1 affinity for peptide (in words) [2, 5]: no effect

B5: H98A: h7C3-1 variant, H98A in CDR L3 (antibody, V domains shown)
VH: B1 VH with Y100H
VL: B1 VL with H98A
binding affinity to cell surface NTSR1 compared with h7C3-1 [1]: slightly affects
effect on h7C3-1 affinity for peptide (in words) [2, 5]: no effect

B6: N54A: h7C3-2 variant, N54A in CDR H2 (antibody, V domains shown)
VH: B1 VH with N54A, Y100H
VL: B1 VL with S97A
binding affinity to peptide compared with h7C3-2 (in words) ([2]; h7C3-2 variants): higher binding affinity

B7: Y105A: h7C3 variant, Y105A in CDR H3 (antibody, V domains shown)
VH: B1 VH with Y105A
VL: B1 VL
effect on h7C3 affinity (in words) [2]: no effect

B8: h7C3-2: 7C3 variant harboring Y100H mutation in CDR H3 and S97A mutation in CDR L3 (antibody, V domains shown)
VH: B1 VH with Y100H
VL: B1 VL with S97A
FACS binding (%, 1 μg/ml) [1]: 86.0%
FACS binding (%, 10 μg/ml) [1]: 99.5%
binding affinity to cell surface NTSR1 compared with h7C3-1 [1]: higher affinity
EC50 [1]: 1.5 ± 0.5 µg/mL
effect on h7C3-1 affinity for peptide (in words) [2, 5]: no effect

B9: L99A: h7C3-1 variant, L99A in CDR L3 (antibody, V domains shown)
VH: B1 VH with Y100H
VL: B1 VL with L99A
decrease of h7C3-1 affinity [2, 5]: 70%

B10: D104A: h7C3 variant, D104A in CDR H3 (antibody, V domains shown)
VH: B1 VH with D104A
VL: B1 VL
effect on h7C3 affinity (in words) [2]: no effect

B11: h7C3-5: humanized variant; heavy chain SEQ ID NO: 15, light chain SEQ ID NO: 16 (antibody, V domains shown)
VH: QVQLVQSGAEVKKPGASVKVSCKASGYAFTSSWIHWVRQAPGQRLEWMGQIRPNSGNTYYNEKFKVRVTITRDTSASTAYMELSSLRSEDTAVYYCARYHYGFDYWGQGTLVTVSS
VL: DIVMTQTPLSLSVTPGQPASISCRSSQSIVHSNGNTYLEWYLQKPGQSPQLLIYKVSNRFSGVPDRFSGSGSGTDFTLKISRVEAEDVGVYYCFQGAHLPWTFGGGTKVEIKR
modifications: VH SEQUENCE; VL SEQUENCE
IC50 [3]: > 500 nM
IC50 [4]: > 500 nM

B12: h7C3-5-MMAE: h7C3-5 conjugated with MMAE via cleavable valine-citrulline linker, average 3.8-4 MMAE per antibody (conjugate)
VH: B11 VH
VL: B11 VL
modifications: non-natural residues
notes: h7C3-5 conjugated with MMAE via cleavable valine-citrulline linker, average 3.8-4 MMAE per antibody
IC50 [3]: 33.1 ± 1.72 nM
IC50 [4]: 56.5 ± 7.1 nM
